Paper PMC3185003

Assays:
[1] = target: non-randomized ABD displayed on staphylococcal cells (not stated (streptococcal)); assay: flow cytometry on cells; S. carnosus cells displaying ABD-variants incubated 1 h at RT in PBSP pH 7.4 with twelve concentrations of biotinylated TNF-α (4.3-12900 nM; streptavidin-Alexa Fluor 488) or HSA-Alexa 488 (1.25-2500 nM; 10-20000 nM for ABD_(TNF1)); MFI fitted to a 1:1 model; apparent KD for TNF-α (monomer concentration)
[2] = target: ABD_(TNF2) displayed on staphylococcal cells; assay: as above
[3] = target: ABD_(TNF1) displayed on staphylococcal cells; assay: as above
ABD_(T001) = assay: SPR; ProteOn XPR36; ABD-molecules immobilized by amine coupling on GLM or GLC chips (about 800-1500 RU); HSA (7-1200 nM) or TNF-α (1-100 nM) injected, 50 µl/min, 25°C, PBS with 0.1% Tween 20; at least triplicates, two chips, two days; apparent KD for TNF-α (monomer concentration)
ABD_(HT016) = assay: as above
ABD_(T002) = assay: as above
ABD_(T004) = assay: as above
ABD_(HT015) = assay: as above
[4] = target: human serum albumin (human) (UniProt P02768); assay: SPR; BIAcore 2000; HSA immobilized (2000 RU); ABD-variants injected in duplicates at about 1-3000 nM (up to 250 nM for ABD); 25°C, HBS-EP

Sequence of biotinylated TNF-α (P01375 77-233): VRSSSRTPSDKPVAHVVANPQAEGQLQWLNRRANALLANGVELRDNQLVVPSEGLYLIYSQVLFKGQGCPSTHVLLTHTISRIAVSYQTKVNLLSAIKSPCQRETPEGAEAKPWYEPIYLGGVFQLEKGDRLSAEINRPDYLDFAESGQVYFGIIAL

Row | Kd [2] [nM] | Kd (ABD_(T001)) [nM] | Kd (ABD_(HT016)) [nM] | Kd (ABD_(T002)) [nM] | Substance | also measured
1 | 23 | – | – | – | HSA conjugated to Alexa Fluor 488 (from UniProt P02768 25-609) (natural protein) | Kd [1]: 19 nM
2 | 594 | – | – | – | biotinylated TNF-α (from UniProt P01375 77-233) (ligand) | Kd [3]: 267 nM
3 | – | 5.2 | 4.5 | 2.9 | tumor necrosis factor-α (from UniProt P01375 77-233) (ligand) | –
4 | – | 192 | 68 | 649 | human serum albumin (from UniProt P02768 25-609) (natural protein) | Kd (ABD_(T004)): 209 nM; Kd (ABD_(HT015)): 35 nM
5 | – | – | – | – | non-randomized ABD (alkali-stabilized albumin-binding domain from streptococcal protein G) (domain or fragment) | Kd [4]: 5.3 nM; koff [4]: 0.0009 s⁻¹; kon [4]: 170000 M⁻¹ s⁻¹
